Experiments:
FcγRIIIa receptor [1] = target: FcγRIIIa receptor (UniProt P08637); assay: SPR (Biacore), FcγRIIIa immobilised; sample with 5.1 % afucosylation
FcγRIIIa receptor [2] = target: FcγRIIIa receptor (UniProt P08637); assay: SPR (Biacore), FcγRIIIa immobilised; sample with 9.6 % afucosylation
FcγRIIIa receptor [3] = target: FcγRIIIa receptor (UniProt P08637); assay: SPR (Biacore), FcγRIIIa immobilised, run 1
FcγRIIIa receptor [4] = target: FcγRIIIa receptor (UniProt P08637); assay: SPR (Biacore), FcγRIIIa immobilised, run 2

Chain of UniProt P08637 (P08637 17-208 limits assumed): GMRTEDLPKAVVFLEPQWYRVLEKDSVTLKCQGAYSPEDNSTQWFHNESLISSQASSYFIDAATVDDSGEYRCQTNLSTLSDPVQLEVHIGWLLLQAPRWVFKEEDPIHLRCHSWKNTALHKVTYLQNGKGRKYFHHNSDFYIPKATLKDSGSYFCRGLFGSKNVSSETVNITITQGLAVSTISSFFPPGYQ

Substance	Kd (FcγRIIIa receptor [1])	Kd (FcγRIIIa receptor [2])	Kd (FcγRIIIa receptor [3])	Kd (FcγRIIIa receptor [4])
Itolizumab produced from Chinese Hamster Ovary (CHO) cell line (Bmab-600) (antibody)	328 nM	306 nM	–	–
Itolizumab produced from mouse derived NS0 cell line (T1h) (antibody)	–	–	372 nM	508 nM

— patent US20180087080A1
